From patent publication US20260027152A1 (SANGAMO THERAPEUTICS, published 2026)
Each block holds one binder with its values, some of them ahead of it.

Legend:
[1] = biological target: IL-23R (coated on beads, Example 1); assay: cell-based or functional assay
[2] = biological target: T1, human IL23Ra (coated on beads) (human, UniProt Q5VWK5 24-353, limits assumed); assay: flow cytometry; biotinylated scFv on human IL23Ra-coated beads, detected with APC-streptavidin, EC50 from median fluorescence intensity
T1 construct: also called human IL-23R alpha subunit
T1 sequence (looked up): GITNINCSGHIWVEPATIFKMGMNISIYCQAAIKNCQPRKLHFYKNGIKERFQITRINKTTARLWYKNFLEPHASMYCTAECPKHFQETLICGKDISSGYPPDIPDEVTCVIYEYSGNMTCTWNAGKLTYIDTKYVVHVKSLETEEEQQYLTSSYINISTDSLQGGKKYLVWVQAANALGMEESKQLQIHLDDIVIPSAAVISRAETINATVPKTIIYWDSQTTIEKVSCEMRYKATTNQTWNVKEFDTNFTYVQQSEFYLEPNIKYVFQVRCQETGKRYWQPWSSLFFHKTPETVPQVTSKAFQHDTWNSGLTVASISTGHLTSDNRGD
Experimental: (§1) The indicated scFVs were produced in mammalian 293tcells, purified and biotinylated. Biotinylated scFvs were then incubated at 25° C. with mouse or human IL23Ra-coated beads for 30 min in PBS. After cold washing, bound IL23R bound scFV was detected by incubation with APC-labelled Streptavidin and analysis of the samples on a Flow-cytometer. An EC50 was calculated based on the median fluorescence intensity from each condition. Calculation, curve fitting and EC50 calculation was performed via Graphpad Prism.

[3] = biological target: T2, mouse IL23Ra (coated on beads) (mouse, UniProt Q8K4B4 24-372, limits assumed); assay: flow cytometry; biotinylated scFv on mouse IL23Ra-coated beads, detected with APC-streptavidin, EC50 from median fluorescence intensity
T2 construct: also called mouse IL-23R alpha subunit
T2 sequence (looked up): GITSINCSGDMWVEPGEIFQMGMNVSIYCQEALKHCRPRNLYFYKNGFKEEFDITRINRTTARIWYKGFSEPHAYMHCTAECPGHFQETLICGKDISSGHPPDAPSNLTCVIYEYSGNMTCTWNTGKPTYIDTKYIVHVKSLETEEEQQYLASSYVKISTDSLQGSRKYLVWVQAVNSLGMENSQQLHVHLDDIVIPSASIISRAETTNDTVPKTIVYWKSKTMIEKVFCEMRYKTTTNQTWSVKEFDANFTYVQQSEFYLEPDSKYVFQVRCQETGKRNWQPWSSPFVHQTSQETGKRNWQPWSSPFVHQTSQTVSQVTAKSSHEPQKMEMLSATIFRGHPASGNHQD
Experimental: as §1

[4] = biological target: T2, mouse IL23Ra (coated on beads); assay: ratio of the EC50 values on mouse and human IL23Ra-coated beads (flow cytometry)
Experimental: as §1

IL-23R (coated on beads, Example 1), sequence (Q5VWK5 whole entry): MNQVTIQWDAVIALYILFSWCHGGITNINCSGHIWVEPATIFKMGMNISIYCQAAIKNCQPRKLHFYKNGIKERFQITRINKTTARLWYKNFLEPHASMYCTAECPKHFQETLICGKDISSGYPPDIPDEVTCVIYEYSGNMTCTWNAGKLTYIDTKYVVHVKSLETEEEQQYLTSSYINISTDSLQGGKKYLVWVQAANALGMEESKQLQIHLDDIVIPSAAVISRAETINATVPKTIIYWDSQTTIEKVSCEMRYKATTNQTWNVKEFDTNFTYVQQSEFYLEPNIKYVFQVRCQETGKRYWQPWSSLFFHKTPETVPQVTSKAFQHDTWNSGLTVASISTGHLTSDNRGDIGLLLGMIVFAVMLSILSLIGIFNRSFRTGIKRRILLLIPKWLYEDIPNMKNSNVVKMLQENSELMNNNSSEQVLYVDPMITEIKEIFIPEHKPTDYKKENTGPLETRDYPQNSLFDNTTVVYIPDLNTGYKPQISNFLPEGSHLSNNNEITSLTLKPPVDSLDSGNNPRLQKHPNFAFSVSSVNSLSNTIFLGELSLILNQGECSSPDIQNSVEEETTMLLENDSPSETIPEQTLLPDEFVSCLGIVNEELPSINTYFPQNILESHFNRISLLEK

CD69+ cells (CAR-Treg activation) after 24 h with IL-23R coated beads, fold increase [1]: 3.6 fold
B1: CAR #2 (anti-IL-23R chimeric antigen receptor with scFv IL23RLamS4-G3, CD8 hinge, CD8 TM, CD28, CD3 zeta) (other)
chain: SYPYDVPDYASQSVLTQPPSVSGAPGQRVTISCTGSSSNIGAGYDVHWYQQLPGTAPKLLIYGNNNRPSGVPDRFSGSKSGTSASLAITGLQAEDEADYYCQSYDTGLSAWVFGGGTKLTVLGGGGSGGGGSGGGGSQLQLQESGPGLVKPSETLSLTCTVSGGSITSSNYYWGWIRQPPGKGLEWIGSIYYSGNTYYNPSLKSRVTISVDTSKNQFSLKLSSVTAADTAVYYCAREWSPYESEGFDYWGQGTLVTVSSTTTPAPRPPTPAPTIASQPLSLRPEACRPAAGGAVHTRGLDFACDIYIWAPLAGTCGVLLLSLVITLYCRSKRSRLLHSDYMNMTPRRPGPTRKHYQPYAPPRDFAAYRSRVKFSRSADAPAYQQGQNQLYNELNLGRREEYDVLDKRRGRDPEMGGKPRRKNPQEGLYNELQKDKMAEAYSEIGMKGERRRGKGHDGLYQGLSTATKDTYDALHMQALPPR

EC50 [2]: 37.6 nM
EC50 [3]: 53.1 nM
fold difference in binding affinity between human IL23R and mouse IL23R [4]: ~1.4 fold
B2: anti-IL-23R scFv IL23RLamS4-G3 (scFv)
scFv: QSVLTQPPSVSGAPGQRVTISCTGSSSNIGAGYDVHWYQQLPGTAPKLLIYGNNNRPSGVPDRFSGSKSGTSASLAITGLQAEDEADYYCQSYDTGLSAWVFGGGTKLTVLGGGGSGGGGSGGGGSQLQLQESGPGLVKPSETLSLTCTVSGGSITSSNYYWGWIRQPPGKGLEWIGSIYYSGNTYYNPSLKSRVTISVDTSKNQFSLKLSSVTAADTAVYYCAREWSPYESEGFDYWGQGTLVTVSS
modifications: biotinylated (sites not given)
notes: also called hmIL23R LamS4-G3; scFv of the present disclosure
